From patent US20150079113A1

Molecular target: α5 integrin (endogenous) (mouse) (UniProt P11688)
Experiment: cell-based or functional assay

Sequence of α5 integrin (endogenous) (mouse) (P11688 45-1053): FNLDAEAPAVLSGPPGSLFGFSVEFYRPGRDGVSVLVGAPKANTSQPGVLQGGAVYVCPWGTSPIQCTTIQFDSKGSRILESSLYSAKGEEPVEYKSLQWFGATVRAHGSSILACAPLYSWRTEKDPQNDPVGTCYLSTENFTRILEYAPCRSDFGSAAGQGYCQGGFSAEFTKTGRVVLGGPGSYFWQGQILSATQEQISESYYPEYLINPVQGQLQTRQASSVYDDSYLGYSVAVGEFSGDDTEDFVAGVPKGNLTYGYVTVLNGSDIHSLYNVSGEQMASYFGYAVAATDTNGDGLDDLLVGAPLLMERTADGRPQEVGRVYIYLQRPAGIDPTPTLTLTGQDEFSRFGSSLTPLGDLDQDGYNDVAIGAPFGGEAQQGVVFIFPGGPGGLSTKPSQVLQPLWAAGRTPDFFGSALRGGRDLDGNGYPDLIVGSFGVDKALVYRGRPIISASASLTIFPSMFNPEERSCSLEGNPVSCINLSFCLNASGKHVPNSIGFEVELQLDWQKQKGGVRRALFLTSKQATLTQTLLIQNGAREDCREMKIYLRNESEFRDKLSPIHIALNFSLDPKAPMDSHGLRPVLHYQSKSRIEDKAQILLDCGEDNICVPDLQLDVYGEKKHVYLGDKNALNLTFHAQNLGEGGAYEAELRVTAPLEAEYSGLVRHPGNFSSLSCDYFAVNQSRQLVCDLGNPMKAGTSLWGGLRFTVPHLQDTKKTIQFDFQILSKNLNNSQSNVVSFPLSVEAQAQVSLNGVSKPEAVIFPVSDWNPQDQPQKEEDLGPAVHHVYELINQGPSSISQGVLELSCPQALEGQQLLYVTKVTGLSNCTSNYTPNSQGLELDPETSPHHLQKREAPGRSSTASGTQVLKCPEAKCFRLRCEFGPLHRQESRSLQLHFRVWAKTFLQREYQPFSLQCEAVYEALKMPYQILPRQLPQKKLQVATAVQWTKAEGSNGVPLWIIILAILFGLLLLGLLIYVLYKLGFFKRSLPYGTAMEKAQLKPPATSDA

Substance: GFP-Mena (from UniProt Q03173 1-802)
- t1/2 of fluorescence recovery (FRAP) in nascent, peripheral adhesions, cells plated for 30 minutes on FN: 18.9 s
